From patent US20240166745A1 (Eli Lilly, published 2024)

What was measured:
[1] = molecular target: T1, cell membrane-expressed human LAG-3 (human, UniProt P18627 23-525); test: flow cytometry, labeled antibody on anti-CD3 activated human PBMC, CD4 T cells, percent of cells bound (mean +/- SEM, n=3)
T1 construct: also called hLAG-3; CD223
T1 sequence: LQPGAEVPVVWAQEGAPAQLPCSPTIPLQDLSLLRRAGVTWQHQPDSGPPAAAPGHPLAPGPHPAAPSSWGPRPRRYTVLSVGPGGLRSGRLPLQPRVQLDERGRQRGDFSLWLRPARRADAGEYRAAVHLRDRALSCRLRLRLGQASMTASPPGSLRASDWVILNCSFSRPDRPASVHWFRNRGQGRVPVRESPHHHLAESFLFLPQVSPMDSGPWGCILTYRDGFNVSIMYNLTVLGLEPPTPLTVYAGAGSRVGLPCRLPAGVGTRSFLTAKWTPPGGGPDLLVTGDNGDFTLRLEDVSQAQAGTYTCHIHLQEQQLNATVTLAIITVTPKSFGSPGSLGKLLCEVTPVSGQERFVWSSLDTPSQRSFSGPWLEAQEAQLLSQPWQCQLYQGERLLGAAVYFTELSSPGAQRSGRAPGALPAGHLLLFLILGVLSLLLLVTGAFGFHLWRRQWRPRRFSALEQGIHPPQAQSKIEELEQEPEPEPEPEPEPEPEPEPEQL
Description: (§1) Cells were incubated with 10-12 point, 3-fold serial dilutions of the respective labeled antibody (Invitrogen #S20026, Invitrogen #C20029), starting at 30 ug/mL, in PBS+2% FCS for 30 minutes at 4° C. and containing the following: CD4 eBioscience #12-0047-42 or Biolegend #344634; CD8 eBioscience #25-0088-42; CD3 eBioscience 56-0038-82 for human cells and BD #557917 for cyno cells; CD33 eBioscience 45-0338-42 for human cells; Live/Dead eBioscience #65-0865-18. After washing thoroughly, cells were processed on a BD Fortessa or Fortessa X20 cytometer, and data were analyzed with Flowjo software (BD Biosciences). Percent of cells bound by the respective antibody is quantified and graphed with Prism (Graphpad, San Diego, CA).

[2] = molecular target: T1, cell membrane-expressed human LAG-3; test: flow cytometry, labeled antibody on anti-CD3 activated human PBMC, CD8 T cells, percent of cells bound (mean +/- SEM, n=3)
Description: as §1

[3] = molecular target: T2, cell surface cynomolgus monkey LAG-3 (cynomolgus); test: flow cytometry, labeled antibody on anti-CD3 activated cynomolgus PBMC, CD4 T cells, percent of cells bound (mean +/- SEM, n=3)
T2 construct: whole, on cells
Description: as §1

Human LAG-3 ECD-His = molecular target: T3, Human LAG-3 ECD-His (human, UniProt P18627 23-449); test: SPR (Biacore T200), antibody captured on PrismA chip, ECD as analyte, 37° C.
T3 construct: Soluble analyte in SPR; the entry includes linker and His tag; also called human LAG-3-His
T3 sequence: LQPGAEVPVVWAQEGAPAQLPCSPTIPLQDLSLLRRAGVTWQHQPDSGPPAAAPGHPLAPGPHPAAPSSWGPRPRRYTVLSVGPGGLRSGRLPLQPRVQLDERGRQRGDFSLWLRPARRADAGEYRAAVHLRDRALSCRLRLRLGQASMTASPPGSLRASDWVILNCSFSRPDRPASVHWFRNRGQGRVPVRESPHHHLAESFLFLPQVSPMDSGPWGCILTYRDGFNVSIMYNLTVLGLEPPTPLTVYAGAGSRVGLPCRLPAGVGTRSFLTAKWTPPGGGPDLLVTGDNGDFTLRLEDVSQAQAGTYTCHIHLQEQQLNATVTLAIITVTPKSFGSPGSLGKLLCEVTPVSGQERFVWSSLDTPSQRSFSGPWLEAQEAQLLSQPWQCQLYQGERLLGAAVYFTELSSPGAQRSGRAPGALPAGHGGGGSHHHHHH
Description: (§2) A Biacore® T200 (Cytiva, Marlborough, MA) was used to measure the binding kinetics and affinities of the LAG-3 antibody to the LAG-3 soluble extracellular domain (ECD) and the bispecific antibody to soluble LAG-3-ECD and PD-1-ECD (human: Sino Biologicals, Cat #10377-H08H; cynomolgus: Sino Biologicals, Cat #90311-C08H) by surface plasmon resonance. Samples were diluted in HBS-EP+ (10 mM Hepes, 150 mM NaCl, 3 mM EDTA, 0.05% Tween-20, pH 7.6) (Teknova Cat #H8022) with 5 g/L of BSA (Jackson ImmunoResearch Cat #001-000-161) running buffer. PrismA Series S Sensor chip (Cat #29650263) is purchased from Cytiva.
(§3) Binding was evaluated using multi-cycle kinetics by an antibody capture method. Each cycle was performed at either 37° C. or 25° C. at a flow rate of 10 μL/min for antibody capture to the PrismA chip and 100 μL/min for analyte association (with 120 sec contact time) and dissociation (900 sec). Each cycle consisted of the following steps: injection of bispecific antibody at 1 μg/mL in HBS-EP+ targeting Rmax values of 125 RU (LAG-3 arm), 294 RU (PD-1 arm) and 63 RU (LAG-3 antibody) on flow cell, injection of analyte in HBS-EP+(concentration range of 62.5 nM to 0.25 nM by two-fold serial dilution for both human PD-1-ECD-His (SEQ ID NO: 40) and human LAG-3-His (SEQ ID NO: 42) followed by 900-second dissociation phase, and regeneration using 10 μL of 10 mM glycine hydrochloride, pH 1.5 over a 60-second contact time utilizing a 10 μL/min flow rate. All analyte concentrations were determined utilizing monomeric molecular weight (MW) values. Association rates (kₒₙ) and dissociation rates (koff) for LAG-3-ECD and PD-1-ECD were evaluated using double referencing by flow-cell one reference subtraction in addition to 0 nM blank subtraction and fit to “1:1 (Langmuir) binding” model in the BIAevaluation software version 4.1. The dissociation constant (KD) was calculated from the binding kinetics according to the relationship KD=Koff/Kₒₙ. Stoichiometry=[RUₘₐₓ/RUcaptured]/[MWanalyte/MWantibody] where MWAntibodyA is 150 kDa. Values are reported as mean±standard deviation.

Cynomolgus LAG-3-ECD = molecular target: T4, Cynomolgus LAG-3-ECD (cynomolgus); test: as above
T4 construct: as printed it starts with the N-terminal leader (MWEAQ...) and ends with a His tag; also called Cynomolgus LAG-3 ECD-His
T4 chain: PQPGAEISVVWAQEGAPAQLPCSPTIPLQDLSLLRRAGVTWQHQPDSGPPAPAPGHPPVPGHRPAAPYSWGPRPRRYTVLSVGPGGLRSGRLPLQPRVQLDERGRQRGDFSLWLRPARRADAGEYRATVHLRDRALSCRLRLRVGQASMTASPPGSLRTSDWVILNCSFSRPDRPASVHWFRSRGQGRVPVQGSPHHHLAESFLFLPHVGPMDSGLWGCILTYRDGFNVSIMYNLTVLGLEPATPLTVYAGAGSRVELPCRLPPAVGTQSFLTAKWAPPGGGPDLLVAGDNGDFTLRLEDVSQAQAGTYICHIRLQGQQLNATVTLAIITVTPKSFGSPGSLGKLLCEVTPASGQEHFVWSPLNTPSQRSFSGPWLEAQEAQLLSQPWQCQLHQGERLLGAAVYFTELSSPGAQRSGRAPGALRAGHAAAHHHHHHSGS
Description: as §2, §3

[4] = molecular target: T2, cell surface cynomolgus monkey LAG-3; test: flow cytometry, labeled antibody on anti-CD3 activated cynomolgus PBMC, CD8 T cells, percent of cells bound (mean +/- SEM, n=3)
Description: as §1

EC50 [1]: 8.7 ng/mL
EC50 [2]: 3.4 ng/mL
EC50 [3]: 10.5 ng/mL
Kd (Human LAG-3 ECD-His): 1000 pM
koff (Human LAG-3 ECD-His): 0.16 s⁻¹
kon (Human LAG-3 ECD-His): 1.5e+08 M⁻¹ s⁻¹
Kd (Cynomolgus LAG-3-ECD): 38 pM
koff (Cynomolgus LAG-3-ECD): 0.0042 s⁻¹
kon (Cynomolgus LAG-3-ECD): 1.1e+08 M⁻¹ s⁻¹
EC50 [4]: 6.5 ng/mL
B1: Antibody E (antibody, V domains shown)
VH: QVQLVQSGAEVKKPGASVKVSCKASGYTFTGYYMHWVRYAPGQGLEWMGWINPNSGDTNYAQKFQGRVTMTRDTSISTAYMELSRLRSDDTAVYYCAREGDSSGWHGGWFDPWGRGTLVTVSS
VL: DIVMTQTPLSLPVTPGEPASISCRSSQSLLDSAEGSTYLDWFLRKPGDSPQLLIYTLSYRASGVPDRFSGSGSGTDFTLKISRVEAEDVGVYYCMQRVEFPYTFGQGTKVEIKR
notes: Monospecific LAG-3 antibody; also called human LAG-3 Antibody E
